Laboratory results: patent US20170204184A1 (CB THERAPEUTICS, published 2017)
Numbering of substitutions follows the chain as printed. Numbers in names are those of the source. Each block holds one binder with its values, some of them ahead of it.

Key:
PD-L1 on 293T cells [1] = molecular target: T1, PD-L1 on 293T cells (UniProt Q9NZQ7 19-290); experiment: flow cytometry on PD-L1-293T cells
T1 construct: whole, on cells; also called PD-L1-293T; 293T-PD-L1 cells
Experimental: Cell binding analyses of anti-PD-L1 antibodies were performed based on binding to a 293T cell line stably expressing PD-L1 (PD-L1-293T). 2×10⁵ 293T-PD-L1 cells were added into each well of 96-well culture plates and incubated with the indicated antibody (20 μg/ml with the dilution of 1:5) at 4° C. for 1 h. After the cells were washed three times with FACS buffer, the secondary antibody (PE Goat anti-mouse: 1:200; PE mouse anti-human: 1:10) was added to the cells at 100 μl/well, and incubated at 4° C. for 40 min. Cells were washed three times with FACS buffer and analyzed by FACS Array.

hPD-L1-hFc = molecular target: T2, hPD-L1-hFc (human); experiment: ELISA, coated PD-L1-hFc
T2 construct: it may hold a signal peptide ('open reading frame of the extracellular domain'); also called PD-L1-hFc protein; human PD-L1 extracellular domain fused with human Fc tag
Experimental: (§1) ELISA binding analyses were conducted based on human PD-L1-mFc (for chimeric and humanized antibody detection) and PD-L1-hFc protein (for hybridoma antibody detection). 96-well plates (Costar, Cat No: 9018) were coated with 100 μL of 2 μg/ml PD-L1-mFc (Crownbio) in coating buffer PBS (Hyclone, Cat No: SH30256.01B) overnight at 4° C. The wells were aspirated and non-specific binding sites were blocked by adding 200 μL of blocking buffer (PBS with 1% (w/v) of bovine serum albumin (BSA, Roche, Cat No:738328)) and incubating for 1 hour at 37° C. After the plates were washed three times with wash buffer (PBS with 0.05% (v/v) Tween20 (Sigma, Cat No:P1379)), 100 μL/well of 1:10 serial dilutions of hybridoma (FIG. 1), chimeric (FIG. 2), or humanized (FIG. 3) anti-PD-L1 antibodies in blocking buffer (starting from 20 μg/mL) were added and incubated at room temperature for 1 hour. The plates were washed and incubated with 100 μL/well of Goat anti-Mouse IgG (H+L) (Thermo, Cat No: 31432) in blocking buffer for 60 min. After the plates were washed, 100 μL/well of substrate solution TMB (eBioscience, Cat No: 00-4201-56) were added and the plates were incubated for 2 min at room temperature. 100 μL/well of stop solution (2N H₂SO₄) was added to stop the reaction. The colorimetric signals were developed and read at 450 nm using an Auto Plate SpectraMax Plus (Supplier: Moleculer Devices; Model: MNR0643; Software: SoftMax Pro v5.4). Data were analyzed using GraphPad Prism 5 and EC50 was calculated (FIGS. 1-3; Tables 5-7).

Human PD-L1 = molecular target: T3, Human PD-L1 (human, UniProt Q9NZQ7 19-238, limits assumed); experiment: SPR (Biacore 3000), antibody captured, PD-L1 as analyte, 1:1 fit
T3 construct: also called PD-L1 analyte (Biacore); hPD-L1
Experimental: The binding kinetics between PD-L1 and PD-L1 antibodies were measured by Biacore analysis, which was performed at 25° C. on a Biacore3000 instrument and recorded with a data collection rate of 1 Hz. Polyclonal rabbit anti-mouse IgG (GE, BR-1008-38) was diluted with 10 mM pH 5.0 sodium acetate and immobilized onto reference and experiment flow cells of a CM5 biosensor chip to around 15000 RU using an amine coupling kit (GE, BR10050). […] PD-L1 analyte series were prepared by diluting the stocks with running buffer to 100 nM followed by 2× serial dilution in the same buffer down to 0.78 nM. Analytes were injected in series over the reference and experiment flow cells for 3 minutes at a flow rate of 30 μL/minute. Running buffer (PBS with 0.05% P20) was allowed to flow over for 10 minutes at a flow rate of 30 μL/minute. At the end of each cycle, the biosensor surface was regenerated with 3 minutes injection of 10 mM pH1.7 Glycine-HCl buffer at a flow rate of 10 μL/minute. For each analyte sample injection (i.e. each cycle), binding responses obtained from the experimental biosensor surface were double referenced by subtracting simultaneously recorded responses from the reference surface followed by additional subtraction of responses from a single referenced running buffer sample. The association and dissociation rate constants (ka and kd) were determined simultaneously by fitting double-referenced sensorgrams of the entire titration series to Langmuir model (1:1) using Biaevaluation 4.0 software. The dissociation constant, KD, was calculated from the determined rate constants by the relation KD=kd/ka.

[2] = molecular target: T4, biotinylated human PD-L1-mFc (human, biotinylated (sites not given)); experiment: competition ELISA: blocks PD-L1-mFc-biotin binding to coated PD-1-hFc
T4 construct: also called PDL-1-mFc-biotin
Experimental: The wells were aspirated and non-specific binding sites were blocked by adding 200 μL of blocking buffer (PBS with 1% (w/v) of bovine serum albumin (BSA, Roche, Cat No:738328)) and incubating for 1 hour at 37° C. After the plate was washed three times with wash buffer (PBS with 0.05% (v/v) Tween20 (Sigma, Cat No:P1379)), 100 μL/well of 1:3 serial dilutions of hybridoma (FIG. 4), chimeric (FIG. 5), or humanized (FIG. 6) anti-PD-L1 antibodies in blocking buffer (starting from 20 μg/mL) were added and incubated at 37° C. for 1 hour. […] After the plate was washed 3 times, secondary antibody (Avidin HRP eBioscience cat No.: E07418-1632, 1:500, 100 μl/well) was added and incubated at 37° C. for 0.5 hour. After the plate was washed, 100 μL/well of substrate solution TMB (eBioscience, Cat No: 00-4201-56) was added and the plate was incubated for 3min at room temperature. 100 μL/well of stop solution (2N H₂SO₄) was added to stop the reaction. The colorimetric signals were developed and read at 450 nm using an Auto Plate SpectraMax Plus (Supplier: Moleculer Devices; Model: MNR0643; Software: SoftMax Pro v5.4). Data were analyzed using GraphPad Prism 5 and IC50 was calculated (FIGS. 4-6; Tables 8-10).

PD-L1 on 293T cells [3] = molecular target: T1, PD-L1 on 293T cells; experiment: flow cytometry competition: blocks biotin-labeled PD-1 binding to PD-L1-293T cells
Experimental: Briefly, PD-L1-293T cells were suspended in FACS buffer (PBS with 3% fetal calf serum). Various concentrations of the hybridoma (FIG. 10), chimeric (FIG. 11), or humanized (FIG. 12) anti-PD-L1 antibodies were added to the cell suspension and incubated at 4° C. for 60 minutes in 96 well plates. […] The cells were washed 3 times with PBS and incubated with mouse anti-biotin PE (Biolegend, cat# 409004). The cell-associated fluorescence was then detected by flow cytometry analysis using FACS array.

hPD-L1-mFc = molecular target: T5, hPD-L1-mFc (human); experiment: ELISA, coated PD-L1-mFc
T5 construct: it may hold a signal peptide; also called human PD-L1-mFc; PD-L1-mFc (Crownbio)
Experimental: as §1

T1 sequence (Q9NZQ7 19-290 limits assumed): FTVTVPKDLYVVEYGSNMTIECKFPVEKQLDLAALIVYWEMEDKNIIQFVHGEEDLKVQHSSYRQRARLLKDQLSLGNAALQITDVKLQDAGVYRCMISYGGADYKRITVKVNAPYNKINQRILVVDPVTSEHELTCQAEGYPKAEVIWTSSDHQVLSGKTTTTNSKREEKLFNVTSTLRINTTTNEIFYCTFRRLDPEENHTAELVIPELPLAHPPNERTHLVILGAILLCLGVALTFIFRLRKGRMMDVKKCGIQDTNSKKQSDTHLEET
T4 sequence (chain, as listed by the source limits assumed): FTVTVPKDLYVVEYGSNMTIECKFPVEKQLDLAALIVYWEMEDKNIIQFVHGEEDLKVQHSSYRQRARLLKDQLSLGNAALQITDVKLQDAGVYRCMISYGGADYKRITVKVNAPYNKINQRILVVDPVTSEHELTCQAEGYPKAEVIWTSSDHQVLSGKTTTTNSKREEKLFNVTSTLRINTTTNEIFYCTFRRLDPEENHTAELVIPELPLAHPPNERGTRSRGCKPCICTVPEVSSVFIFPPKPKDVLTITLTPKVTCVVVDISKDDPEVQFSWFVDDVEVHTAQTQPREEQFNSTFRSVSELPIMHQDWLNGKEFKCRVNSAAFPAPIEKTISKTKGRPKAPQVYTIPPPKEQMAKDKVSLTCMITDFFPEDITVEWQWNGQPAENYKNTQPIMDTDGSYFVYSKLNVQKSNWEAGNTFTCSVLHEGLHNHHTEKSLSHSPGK
T2 sequence (chain, as listed by the source limits assumed): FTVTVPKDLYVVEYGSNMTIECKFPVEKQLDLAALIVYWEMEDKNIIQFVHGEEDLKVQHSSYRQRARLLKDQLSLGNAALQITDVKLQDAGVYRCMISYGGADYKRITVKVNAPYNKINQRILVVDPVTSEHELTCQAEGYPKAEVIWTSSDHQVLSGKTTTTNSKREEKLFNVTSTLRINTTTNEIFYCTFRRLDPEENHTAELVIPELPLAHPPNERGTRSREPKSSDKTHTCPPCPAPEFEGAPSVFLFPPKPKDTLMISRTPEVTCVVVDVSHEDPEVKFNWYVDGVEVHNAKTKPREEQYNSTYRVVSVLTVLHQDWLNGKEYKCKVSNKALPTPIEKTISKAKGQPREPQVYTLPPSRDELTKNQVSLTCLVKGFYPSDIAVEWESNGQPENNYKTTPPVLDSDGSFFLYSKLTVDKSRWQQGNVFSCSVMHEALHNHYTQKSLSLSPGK
T3 sequence (Q9NZQ7 19-238 limits assumed): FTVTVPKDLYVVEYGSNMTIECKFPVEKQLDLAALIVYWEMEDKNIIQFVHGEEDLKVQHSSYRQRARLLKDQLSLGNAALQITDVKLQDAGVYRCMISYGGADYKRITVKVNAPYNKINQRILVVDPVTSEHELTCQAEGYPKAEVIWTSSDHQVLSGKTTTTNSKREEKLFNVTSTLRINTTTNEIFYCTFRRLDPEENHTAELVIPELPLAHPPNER

EC50 (PD-L1 on 293T cells [1]): 0.0359 µg/mL
EC50 (hPD-L1-hFc): 0.0459 µg/mL
Kd (Human PD-L1): 0.19 nM
IC50 [2]: 0.71 µg/mL
IC50 (PD-L1 on 293T cells [3]): 0.0163 µg/mL
B1: m5G11 (antibody, V domains shown)
VH: QVQLKQSGPGLVQPSQSLSITCTVSGFSLTTYGVHWVRQSPGKGLEWLGVIWRGVTTDYNAAFMSRLTITKDNSKSQVFFKMNSLQANDTAIYYCARLGFYAMDYWGQGTSVTVSS
VL: SIVMTQTPKFLLVSAGDRVTITCKASQSVSNDVAWYQQKPGQSPKLLIYYAANRYTGVPDRFTGSGYGTDFTFTISIVQAEDLAVYFCQQDYTSPYTFGGGTKLEIK
notes: Murine hybridoma IgG (printed 'mIgG'); also called 5G11-mIgG; 5G11 murine

EC50 (PD-L1 on 293T cells [1]): 0.0678 µg/mL
EC50 (hPD-L1-hFc): 0.0576 µg/mL
Kd (Human PD-L1): 2.33 nM
IC50 [2]: 0.868 µg/mL
IC50 (PD-L1 on 293T cells [3]): 0.0291 µg/mL
B2: m4A8 (antibody, V domains shown)
VH: B1 VH with T31S, R53S, V55G, T56I, M64K, T68S, T70S, Y94F
VL: QIVLTQSPAIMSASPGEKVTMTCSANSSVSYMHWYQQKSGTSPKRWIYDTSKLASGVPARFSGSGSGTSYSLTISSMGAEDAATYYCQQWSSNPWTFGGGTKLEIK
notes: Murine hybridoma IgG (printed 'mIgG'); also called 4A8-mIgG; 4A8 murine

Kd (Human PD-L1): 0.286 nM
B3: ch5G11 (antibody)
VH: B1 VH
light: SIVMTQTPKFLLVSAGDRVTITCKASQSVSNDVAWYQQKPGQSPKLLIYYAANRYTGVPDRFTGSGYGTDFTFTISIVQAEDLAVYFCQQDYTSPYTFGGGTKLEIKRTVAAPSVFIFPPSDEQLKSGTASVVCLLNNFYPREAKVQWKVDNALQSGNSQESVTEQDSKDSTYSLSSTLTLSKADYEKHKVYACEVTHQGLSSPVTKSFNRGEC
notes: Mouse VH linked to a human constant region

IC50 [2]: 0.477 µg/mL
IC50 (PD-L1 on 293T cells [3]): 0.0349 µg/mL
EC50 (hPD-L1-mFc): 0.076 µg/mL
B4: ch8C6-hIgG4 (antibody, V domains shown)
VH: B1 VH with T31S, R53S, V55G, T56V, M64I, T68S, T70S
VL: SIVMTQTPKFLLVSAGDRVTITCKASQSVSNDVGWYQQKPGQSPKLLIYYASNRYSGVPDRFTGSGYGTDFTFTISTVQAEDLAVYFCQQDYTSPYTFGGGTKLEIKR
notes: Mouse-human chimeric IgG4 (F234A/L235A), human kappa; also called Chimeric 8C6-IgG4 (F234A/L235A); chimeric 8C6-hIgG4

EC50 (PD-L1 on 293T cells [1]): 0.041 µg/mL
EC50 (hPD-L1-hFc): 0.0182 µg/mL
Kd (Human PD-L1): 1.53 nM
IC50 [2]: 0.344 µg/mL
IC50 (PD-L1 on 293T cells [3]): 0.0082 µg/mL
B5: m8C6 (antibody, V domains shown)
VH: B1 VH with T31S, R53S, V55G, T56V, M64I, T68S, T70S
VL: B1 VL with A34G, A52S, T56S, I77T
notes: Murine hybridoma IgG (printed 'mIgG'); also called 8C6-mIgG; 8C6 murine

EC50 (PD-L1 on 293T cells [1]): 0.0435 µg/mL
EC50 (hPD-L1-hFc): 0.029 µg/mL
Kd (Human PD-L1): 4.56 nM
IC50 [2]: 0.788 µg/mL
IC50 (PD-L1 on 293T cells [3]): 0.0306 µg/mL
B6: m8H4 (antibody, V domains shown)
VH: EVKLVESGGGLVKPGGSLKLSCAASGFTFRSYGMSWARQIPEKRLEWVASISSGGTTYYLGSVQGRFTISRDNARNILYLQMSSLRSEDTAMYYCARGYDAGFAYWGQGTLVSVSE
VL: DIVLTQSPASLAVSLGQRATISCRASQSVSTSSYSYMHWYQQKPGQPPKLLIKYASNLESGVPARFSGSGSGTDFTLNIHPVEEEDTATYYCQNSWEIPYTFGGGTKLEIK
notes: Murine hybridoma IgG (printed 'mIgG'); also called 8H4-mIgG; 8H4 murine
